Test results published in article doi:10.1101/511394.
Read-outs that look alike come from different tables or passages of the source.

T1: C3ORF37/HMCES full-length (UniProt Q96FZ2 1-354)
T1 sequence: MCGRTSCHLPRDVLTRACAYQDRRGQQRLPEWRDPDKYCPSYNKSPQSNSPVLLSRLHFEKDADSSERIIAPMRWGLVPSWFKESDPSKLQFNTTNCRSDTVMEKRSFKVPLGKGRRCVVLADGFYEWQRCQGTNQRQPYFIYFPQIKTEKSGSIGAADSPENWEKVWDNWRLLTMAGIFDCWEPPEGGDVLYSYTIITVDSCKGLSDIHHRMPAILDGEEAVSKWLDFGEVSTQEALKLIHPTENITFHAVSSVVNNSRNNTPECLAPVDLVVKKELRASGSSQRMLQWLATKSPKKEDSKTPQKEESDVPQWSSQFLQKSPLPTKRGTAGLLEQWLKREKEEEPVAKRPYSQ

T2: ZHX1 (UniProt Q9UKY1 55-830)
T2 sequence: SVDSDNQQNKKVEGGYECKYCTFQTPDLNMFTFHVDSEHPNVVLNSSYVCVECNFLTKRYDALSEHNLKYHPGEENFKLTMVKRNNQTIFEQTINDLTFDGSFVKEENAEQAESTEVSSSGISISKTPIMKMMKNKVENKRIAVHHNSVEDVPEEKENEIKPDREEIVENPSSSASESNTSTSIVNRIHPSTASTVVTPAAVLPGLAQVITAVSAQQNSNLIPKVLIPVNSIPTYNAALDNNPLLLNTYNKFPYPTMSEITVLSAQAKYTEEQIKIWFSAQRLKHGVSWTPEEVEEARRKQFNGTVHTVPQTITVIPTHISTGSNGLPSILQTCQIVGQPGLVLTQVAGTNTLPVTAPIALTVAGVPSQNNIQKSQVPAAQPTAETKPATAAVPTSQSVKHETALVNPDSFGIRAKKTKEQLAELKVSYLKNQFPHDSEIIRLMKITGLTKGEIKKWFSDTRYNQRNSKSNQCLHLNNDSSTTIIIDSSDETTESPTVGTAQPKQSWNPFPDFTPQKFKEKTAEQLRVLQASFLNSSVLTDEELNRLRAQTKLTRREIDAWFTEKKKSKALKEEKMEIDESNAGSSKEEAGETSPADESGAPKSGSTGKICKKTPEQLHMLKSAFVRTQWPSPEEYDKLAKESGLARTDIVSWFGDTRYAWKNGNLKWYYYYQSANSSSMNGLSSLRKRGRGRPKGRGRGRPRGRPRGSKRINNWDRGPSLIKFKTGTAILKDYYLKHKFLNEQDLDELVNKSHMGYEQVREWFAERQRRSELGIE

T3: WDR76 (FLAG-HA, HEK293 purified) (Homo sapiens, UniProt Q9H967 1-626)
T3 sequence: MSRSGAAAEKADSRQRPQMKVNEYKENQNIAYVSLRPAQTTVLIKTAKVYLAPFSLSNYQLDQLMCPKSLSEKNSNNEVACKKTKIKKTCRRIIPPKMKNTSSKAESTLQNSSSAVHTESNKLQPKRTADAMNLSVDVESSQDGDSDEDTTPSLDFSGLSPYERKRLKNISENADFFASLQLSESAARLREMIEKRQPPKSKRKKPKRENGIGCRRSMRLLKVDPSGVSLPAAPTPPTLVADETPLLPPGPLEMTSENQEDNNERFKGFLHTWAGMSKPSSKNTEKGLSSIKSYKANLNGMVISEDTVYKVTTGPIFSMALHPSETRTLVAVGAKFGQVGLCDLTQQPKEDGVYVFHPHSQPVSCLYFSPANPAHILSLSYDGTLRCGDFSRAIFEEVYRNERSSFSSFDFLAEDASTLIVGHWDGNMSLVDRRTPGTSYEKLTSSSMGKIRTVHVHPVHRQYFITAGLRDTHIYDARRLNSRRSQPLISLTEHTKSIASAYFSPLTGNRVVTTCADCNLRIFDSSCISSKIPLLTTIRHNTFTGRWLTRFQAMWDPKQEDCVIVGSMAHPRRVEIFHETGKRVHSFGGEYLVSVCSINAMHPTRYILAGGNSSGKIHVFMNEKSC

T4: WDR76 (FLAG-HA, insect cell) (Homo sapiens, UniProt Q9H967 1-626)
T4 sequence: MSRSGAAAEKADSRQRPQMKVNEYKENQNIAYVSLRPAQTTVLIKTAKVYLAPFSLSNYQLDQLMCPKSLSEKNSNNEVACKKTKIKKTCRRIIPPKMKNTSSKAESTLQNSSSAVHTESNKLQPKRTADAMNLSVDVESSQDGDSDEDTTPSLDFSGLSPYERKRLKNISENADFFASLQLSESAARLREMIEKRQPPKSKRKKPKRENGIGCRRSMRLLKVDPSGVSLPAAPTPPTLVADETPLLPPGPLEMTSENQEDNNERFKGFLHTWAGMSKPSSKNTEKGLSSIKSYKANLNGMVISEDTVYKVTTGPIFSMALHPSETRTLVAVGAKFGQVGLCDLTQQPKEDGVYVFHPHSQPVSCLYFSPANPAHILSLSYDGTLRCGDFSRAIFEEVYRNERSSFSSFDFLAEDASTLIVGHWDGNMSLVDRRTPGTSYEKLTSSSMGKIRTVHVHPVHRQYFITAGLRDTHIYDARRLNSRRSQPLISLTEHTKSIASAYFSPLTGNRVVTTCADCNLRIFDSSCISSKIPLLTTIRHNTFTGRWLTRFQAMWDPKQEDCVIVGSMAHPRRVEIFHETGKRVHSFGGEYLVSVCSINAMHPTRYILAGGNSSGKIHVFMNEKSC

T5: WDR76 NTD (Homo sapiens, UniProt Q9H967 1-151)
T5 sequence: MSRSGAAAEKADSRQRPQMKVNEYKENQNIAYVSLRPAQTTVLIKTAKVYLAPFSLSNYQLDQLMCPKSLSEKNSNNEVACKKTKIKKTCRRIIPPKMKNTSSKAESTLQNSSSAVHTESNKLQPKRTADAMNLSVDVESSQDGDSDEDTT

B1: C/C duplex (dsDNA)
DNA 1: GCGGCTGCGTGGGTCC
DNA 2: GGACCCACGCAGCCGC
B2: fC/fC duplex (dsDNA)
DNA 1: GCGGCTGCGTGGGTCC
DNA 2: GGACCCACGCAGCCGC
modifications: 5-formylcytosine at central CpG C8 of both strands
B3: hmC/hmC duplex (dsDNA)
DNA 1: GCGGCTGCGTGGGTCC
DNA 2: GGACCCACGCAGCCGC
modifications: 5-hydroxymethylcytosine at central CpG C8 of both strands
B4: mC/mC duplex (dsDNA)
DNA 1: GCGGCTGCGTGGGTCC
DNA 2: GGACCCACGCAGCCGC
modifications: 5-methylcytosine at central CpG C8 of both strands
B5: hmC/C duplex (dsDNA)
DNA 1: GCGGCTGCGTGGGTCC
DNA 2: GGACCCACGCAGCCGC
modifications: 5-hydroxymethylcytosine at central CpG of one strand (strand not stated), C on the other

Key:
[1] = target: T1, C3ORF37/HMCES full-length; test: filter binding
ZHX1 = target: T2, ZHX1; test: EMSA
[2] = target: T3, WDR76 (FLAG-HA, HEK293 purified); test: EMSA
[3] = target: T4, WDR76 (FLAG-HA, insect cell); test: EMSA
[4] = target: T4, WDR76 (FLAG-HA, insect cell); test: EMSA; remark: listed apart in the source
WDR76 NTD = target: T5, WDR76 NTD; test: filter binding

Binder	binding result (ZHX1)	binding result [2]	further results
B1	no binding	–	binding result [1]: no binding
B2	no binding	no binding	binding result [3]: no binding
B3	no binding	binds	binding result [4]: binds
B4	no binding	–	–
B5	–	–	binding result (WDR76 NTD): binds
